The text below walks through data of patent publication US20230037815A1 (CULLINAN THERAPEUTICS, published 2023).

B1: CNG-HSA-117 (VHH)
VHH: KVQLVESGGGLVQPGNSLRLSCAASGFTFSSFGMSWVRQAPGKGLEWVSSISGSGSDTLYADSVKGRFTISRDNSKNTLYLQMNSLRAEDTAVYYCTIGGSLTRSSQGTLVTVSS
B2: CNG-HSA-102 (VHH)
VHH: B1 VHH with V5L, N16G, K65R, A88P, T103S, R104P
B3: CNG-HSA-114 (VHH)
VHH: B1 VHH with Y60T, T103V
B4: CNG-HSA-115 (VHH)
VHH: B1 VHH with S35G, D62P, A88P, I98F, G99A, T103S
B5: CNG-HSA-112 (VHH)
VHH: B1 VHH with V5L, N16G, S30P, S75A, N77T, A88P, L102V, T103S, R104K, Q107R
B6: CNG-HSA-111 (VHH)
VHH: B1 VHH with N16G, K65E, T103K, R104Q
B7: CNG-HSA-113 (VHH)
VHH: B1 VHH with K1G, V5L, N16G, S54T, A88P, T103R, R104Y
B8: CNG-HSA-105 (VHH)
VHH: B1 VHH with K1E, V5L, N16G, T28V, A88P, T103S
B9: CNG-HSA-101 (VHH)
VHH: B1 VHH with N16G, S35T, K65R, T103S, R104P
B10: CNG-HSA-107 (VHH)
VHH: B1 VHH with V5L, N16G, K65R, T97S, T103I
B11: CNG-HSA-119 (VHH)
VHH: B1 VHH with T58A, V64A, S75A, N77T, T103S, R104P
B12: CNG-HSA-103 (VHH)
VHH: B1 VHH with N16G, S35T, K65R, A88P, T103S, R104P
B13: CNG-HSA-110 (VHH)
VHH: B1 VHH with S56G, V64A, A88P, T103S
B14: CNG-HSA-116 (VHH)
VHH: B1 VHH with N16G, L45P, T103R, R104A
B15: CNG-HSA-120 (VHH)
VHH: B1 VHH with N16G, L45P, A88P, T103K, R104Q
B16: CNG-HSA-104 (VHH)
VHH: B1 VHH with V5L, N16G, S30H, A88P, T103S
B17: CNG-HSA-109 (VHH)
VHH: B1 VHH with S30G, L45P, A88P, T103S
B18: CNG-HSA-118 (VHH)
VHH: B1 VHH with S54G, K65R, T103R, R104A
B19: CNG-HSA-108 (VHH)
VHH: B1 VHH with N16G, S30G, S56A, T103R, R104A

Substitutions are numbered along the chain they refer to.

For one assay, the target named is T1, human serum albumin (human, UniProt P02768 25-609).
T1 construct: also called HSA
In words: Octet HTX (ForteBio), HCAb on AHC sensor, 1:1 fit. On the technique in general: BLI is a label-free optical method that tracks binding on a fibre tip over time.
For the molecule B1, binding was characterised by a dissociation constant (Kd) of 5.56 nM and the koff (commonly the rate constant with which the complex falls apart) was 0.000793 s⁻¹.

Regarding B2, the Kd – broadly, the free concentration of one partner at which half of the binding sites on the other are occupied at equilibrium, for simple one-to-one binding – worked out at 4.89 nM and the koff was 0.000748 s⁻¹.

Molecule B3 yielded a Kd of 14.7 nM and a koff of 0.00221 s⁻¹.

For the molecule B4, the Kd was determined as 2.96 nM and the koff is 0.000441 s⁻¹.

Turning to B5, binding was put at a Kd of 8.45 nM and the koff stood at 0.00136 s⁻¹.

On to B6, for which the affinity, expressed as Kd, was 8.35 nM and the koff was 0.00117 s⁻¹.

As to B7, the Kd was 15.4 nM and the koff came out at 0.00214 s⁻¹.

B8 gave a Kd of 15.2 nM and an off-rate constant (koff) of 0.002 s⁻¹.

B9 gave a Kd of 5.07 nM and a koff of 0.000716 s⁻¹.

Turning to B10, binding was characterised by a dissociation constant (Kd) of 16.8 nM and the koff came out at 0.00238 s⁻¹.

The molecule B11 had a Kd of 7.36 nM and a koff of 0.00109 s⁻¹.

On to B12, for which the affinity, expressed as Kd, was 4.89 nM and the koff worked out at 0.000742 s⁻¹.

B13 had a Kd of 5.7 nM and a koff of 0.000893 s⁻¹.

Regarding B14, binding was put at a Kd of 4.65 nM and the dissociation rate constant (koff) was found to be 0.000699 s⁻¹.

B15 had a Kd of 3.15 nM and an off-rate constant (koff) of 0.000507 s⁻¹.

For B16, the Kd was 7.71 nM and the koff turned out to be 0.00112 s⁻¹.

Molecule B17 returned a Kd of 3.5 nM and a koff of 0.000566 s⁻¹.

As to B18, binding was put at a Kd of 9.36 nM and the koff is 0.0013 s⁻¹.

Molecule B19 came in with a Kd of 6.19 nM and a koff of 0.000958 s⁻¹.

In another assay the target is protein A (UniProt P38507 37-327). In words: Octet HTX (ForteBio), HCAb on AHC sensor, 1:1 fit.
The molecule B1 returned a Kd of 1.78 nM and a koff of 0.0002 s⁻¹.

B2: the Kd was found to be 1.7 nM and the koff was determined as 0.0002 s⁻¹.

For the molecule B5, the dissociation constant Kd stood at 3.44 nM and the koff turned out to be 0.000375 s⁻¹.

On to B6, for which the dissociation constant Kd came to 2.84 nM and the dissociation rate constant (koff) was 0.0002 s⁻¹.

Consider B7, for which the Kd was 1.7 nM and the koff is 0.0002 s⁻¹.

B8 returned a Kd of 2.76 nM and a koff of 0.000297 s⁻¹.

In turn, B9 had a Kd of 1.84 nM and a koff of 0.0002 s⁻¹.

In turn, B10 showed a Kd of 3.09 nM and a koff of 0.000333 s⁻¹.

Turning to B12, the affinity, expressed as Kd, was 2.02 nM and the koff was 0.000221 s⁻¹.

In turn, B13 returned a Kd of 3.67 nM and a dissociation rate constant (koff) of 0.000378 s⁻¹.

The molecule B14 had a Kd of 1.75 nM and a koff of 0.0002 s⁻¹.

For B16, the Kd worked out at 1.7 nM and the koff was 0.0002 s⁻¹.

For the molecule B17, the Kd is 1.78 nM and the koff amounted to 0.0002 s⁻¹.

Molecule B19 gave a Kd of 2.94 nM and a koff of 0.000294 s⁻¹.

In a further assay the target is T2, mouse serum albumin (mouse, UniProt P07724 25-608).
T2 construct: also called MSA
T2 sequence (P07724 25-608 limits assumed): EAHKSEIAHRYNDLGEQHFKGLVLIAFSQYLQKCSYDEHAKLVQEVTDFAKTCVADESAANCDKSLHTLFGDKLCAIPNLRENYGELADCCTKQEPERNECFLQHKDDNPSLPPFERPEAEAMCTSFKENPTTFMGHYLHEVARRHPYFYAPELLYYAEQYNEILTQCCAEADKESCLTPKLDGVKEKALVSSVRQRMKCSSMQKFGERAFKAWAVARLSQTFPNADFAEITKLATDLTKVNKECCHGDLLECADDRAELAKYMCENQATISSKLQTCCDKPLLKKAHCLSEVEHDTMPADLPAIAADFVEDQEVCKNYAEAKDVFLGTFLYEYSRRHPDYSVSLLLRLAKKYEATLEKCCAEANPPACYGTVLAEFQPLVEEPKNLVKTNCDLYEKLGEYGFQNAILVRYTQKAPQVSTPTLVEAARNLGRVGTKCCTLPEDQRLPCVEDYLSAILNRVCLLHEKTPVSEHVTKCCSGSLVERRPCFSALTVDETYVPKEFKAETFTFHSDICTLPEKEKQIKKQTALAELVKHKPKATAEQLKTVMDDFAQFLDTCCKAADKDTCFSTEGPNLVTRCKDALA
In words: Octet HTX (ForteBio), HCAb on AHC sensor, 1:1 fit.
In turn, B1 registered a Kd of 44.8 nM and a koff of 0.00877 s⁻¹.

B2 yielded a Kd of 41.4 nM and a koff of 0.00738 s⁻¹.

For B3, the dissociation constant Kd was 17.5 nM and the koff came to 0.0038 s⁻¹.

As for B4, the affinity, expressed as Kd, was 6.43 nM and the koff is 0.00132 s⁻¹.

On to B5, for which the Kd was found to be 66.7 nM and the koff was 0.013 s⁻¹.

Consider B6, for which the Kd is 10.2 nM and the koff amounted to 0.00231 s⁻¹.

On to B7, for which the Kd amounted to 52 nM and the koff was found to be 0.0101 s⁻¹.

Consider B8, for which the affinity, expressed as Kd, was 154 nM and the koff is 0.0206 s⁻¹.

Molecule B9 gave a Kd of 16.1 nM and a koff of 0.00341 s⁻¹.

In turn, B10 returned a dissociation constant Kd of 45.6 nM and a koff of 0.00851 s⁻¹.

In turn, B11 gave a Kd of 41.1 nM and a koff of 0.00854 s⁻¹.

In the case of B12, the Kd worked out at 15.1 nM and the koff worked out at 0.00324 s⁻¹.

B13: the Kd is 38.9 nM and the koff stood at 0.00838 s⁻¹.

B14: the Kd was 4.56 nM and the koff worked out at 0.00108 s⁻¹.

As to B15, binding was characterised by a dissociation constant (Kd) of 4.32 nM and the koff came to 0.00107 s⁻¹.

As for B16, binding was put at a Kd of 50.6 nM and the koff came to 0.0105 s⁻¹.

Molecule B17 registered a Kd of 11.9 nM and a koff of 0.00284 s⁻¹.

For B18, the Kd was 12 nM and the koff is 0.00274 s⁻¹.

As to B19, the affinity, expressed as Kd, was 8.06 nM and the off-rate (koff) came out at 0.00185 s⁻¹.

For another assay, the target named is cynomolgus serum albumin (cynomolgus, UniProt A2V9Z4 25-608). Nature of the assay: Octet HTX (ForteBio), HCAb on AHC sensor, 1:1 fit.
Sequence of cynomolgus serum albumin (A2V9Z4 25-608 limits assumed): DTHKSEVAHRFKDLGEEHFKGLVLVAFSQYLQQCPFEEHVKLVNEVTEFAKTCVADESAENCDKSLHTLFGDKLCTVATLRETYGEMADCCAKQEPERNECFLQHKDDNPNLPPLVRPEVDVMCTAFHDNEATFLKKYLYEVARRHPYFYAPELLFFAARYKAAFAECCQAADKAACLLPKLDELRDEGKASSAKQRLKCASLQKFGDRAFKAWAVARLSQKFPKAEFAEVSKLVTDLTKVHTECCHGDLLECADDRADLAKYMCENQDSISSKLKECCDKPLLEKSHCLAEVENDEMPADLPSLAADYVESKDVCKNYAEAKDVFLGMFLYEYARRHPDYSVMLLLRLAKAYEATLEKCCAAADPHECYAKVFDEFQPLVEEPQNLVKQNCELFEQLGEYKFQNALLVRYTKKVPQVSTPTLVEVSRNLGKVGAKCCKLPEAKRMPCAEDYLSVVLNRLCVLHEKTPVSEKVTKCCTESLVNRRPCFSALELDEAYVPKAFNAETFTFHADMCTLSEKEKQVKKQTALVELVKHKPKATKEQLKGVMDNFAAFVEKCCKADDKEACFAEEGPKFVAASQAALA
Turning to B1, the dissociation constant Kd worked out at 4.05 nM and the koff amounted to 0.000608 s⁻¹.

B2 came in with a dissociation constant (Kd) of 3.65 nM and a koff of 0.000568 s⁻¹.

Consider B3, for which the affinity, expressed as Kd, was 12 nM and the koff came to 0.00173 s⁻¹.

B4 registered a Kd of 3.37 nM and a koff of 0.000618 s⁻¹.

Consider B5, for which binding was put at a Kd of 7.43 nM and the koff was determined as 0.00115 s⁻¹.

B6: the dissociation constant Kd came to 6.13 nM and the koff was 0.000884 s⁻¹.

In the case of B7, the Kd worked out at 12.1 nM and the koff amounted to 0.0017 s⁻¹.

For B8, binding was put at a Kd of 12.7 nM and the dissociation rate constant (koff) worked out at 0.00163 s⁻¹.

Regarding B9, the affinity, expressed as Kd, was 3.58 nM and the koff came to 0.000532 s⁻¹.

The molecule B10 registered a Kd of 13.3 nM and a koff of 0.00182 s⁻¹.

B11 had a Kd of 5.73 nM and a koff of 0.000864 s⁻¹.

In turn, B12 yielded a Kd of 3.62 nM and a koff of 0.000541 s⁻¹.

Regarding B13, the equilibrium dissociation constant (Kd) is 5.2 nM and the koff came out at 0.000759 s⁻¹.

B14 gave a Kd of 3.85 nM and a koff of 0.000597 s⁻¹.

Regarding B15, the Kd turned out to be 2.6 nM and the off-rate (koff) came to 0.000422 s⁻¹.

Molecule B16 displayed a Kd of 6.1 nM and a koff of 0.000874 s⁻¹.

In the case of B17, binding was put at a Kd of 3.1 nM and the koff is 0.000503 s⁻¹.

B18 returned a Kd of 6.65 nM and a dissociation rate constant (koff) of 0.00102 s⁻¹.

For B19, the Kd is 5.27 nM and the koff worked out at 0.000794 s⁻¹.

A further assay has as its target T2, mouse serum albumin. Nature of the assay: ratio of the Octet KD for mouse serum albumin to that for human serum albumin.
As to B1, the “Ratio of MSA-KD to HSA-KD” value is 8.07.

For B2, the “Ratio of MSA-KD to HSA-KD” value was found to be 8.46.

In the case of B3, the “Ratio of MSA-KD to HSA-KD” value stood at 1.2.

On to B4, for which the “Ratio of MSA-KD to HSA-KD” value amounted to 2.17.

With B5, the “Ratio of MSA-KD to HSA-KD” value was 7.9.

In the case of B6, the “Ratio of MSA-KD to HSA-KD” value was 1.23.

Consider B7, for which the “Ratio of MSA-KD to HSA-KD” value came to 3.38.

For the molecule B8, the “Ratio of MSA-KD to HSA-KD” value turned out to be 10.1.

Turning to B9, the “Ratio of MSA-KD to HSA-KD” value was found to be 3.17.

B10: the “Ratio of MSA-KD to HSA-KD” value stood at 2.72.

For the molecule B11, the “Ratio of MSA-KD to HSA-KD” value worked out at 5.59.

Turning to B12, the “Ratio of MSA-KD to HSA-KD” value is 3.09.

Turning to B13, the “Ratio of MSA-KD to HSA-KD” value amounted to 6.82.

For the molecule B14, the “Ratio of MSA-KD to HSA-KD” value came to 0.98.

With B15, the “Ratio of MSA-KD to HSA-KD” value stood at 1.37.

Consider B16, for which the “Ratio of MSA-KD to HSA-KD” value is 6.57.

In the case of B17, the “Ratio of MSA-KD to HSA-KD” value was found to be 3.4.

Regarding B18, the “Ratio of MSA-KD to HSA-KD” value turned out to be 1.28.

For B19, the “Ratio of MSA-KD to HSA-KD” value was 1.3.
